Our source for the Kd values is the Immune Epitope Database (IEDB).

Assay [1] deals with HLA-B*18:01. Nature of the assay: IEDB peptide-MHC binding, purified MHC/competitive/radioactivity; filed as Kd, often an IC50 or EC50 that approximates it; ≥ and ≤ were set here for values at or beyond the usual limits of such assays.
The target in assay [2] is HLA-B*44:03. Described as above.
Assay [3] addresses HLA-B*45:01. The description is as above.
Assay [4] has as its target HLA-B*44:02. The description is as above.
The target in assay [5] is HLA-B*40:01. The description is as above.
The target of assay [6] is HLA-B*40:02. The assay is described as above.
In assay [7] the target is HLA-A*24:02. Description: IEDB peptide-MHC binding, purified MHC/direct/fluorescence; filed as Kd, often an IC50 or EC50 that approximates it; ≥ and ≤ were set here for values at or beyond the usual limits of such assays.
Assay [8] addresses HLA-A*01:01. Described as above.
Assay [9] deals with HLA-B*07:02. Described as above.
In assay [10] the target is HLA-A*69:01. Described as above.
Assay [11] deals with HLA-A*26:01. The assay is described as above.
Assay [12] deals with HLA-B*15:09. Described as above.
Assay [13] has as its target HLA-B*08:02. Described as above.
Assay [14] concerns the target HLA-B*58:01. The assay is described as above.
In assay [15] the target is HLA-B*46:01. The description is as above.
In assay [16] the target is HLA-A*02:01. The description is as above.
The target of assay [17] is HLA-B*44:02. The description is as above.
The target in assay [18] is HLA-B*15:01. The assay is described as above.
Assay [19] addresses HLA-A*31:01. Described as above.
Assay [20] addresses HLA-B*40:01. The assay is described as above.
The target in assay [21] is HLA-A*03:01. The assay is described as above.
The target in assay [22] is HLA-B*27:05. Described as above.
The target of assay [23] is HLA-A*11:01. Described as above.
Assay [24] deals with HLA-B*08:01. Described as above.
The target in assay [25] is HLA-B*18:01. The description is as above.
The target of assay [26] is HLA-A*24:03. The description is as above. Particulars: source organism: Influenza A virus (A/camel/Mongolia/1982(H1N1)).
Setting [27] is: source organism: SARS coronavirus Tor2.
Setting [28] is: source organism: Vibrio parahaemolyticus.
The mark [29] stands for this setting: source organism: Vibrio vulnificus CMCP6.
Setting [30] is: source organism: Mammarenavirus juninense.
[31] abbreviates: source organism: Influenza A virus (A/mallard/NZ/1/97(H5N2)).
The mark [32] stands for this setting: source organism: Influenza A virus(A/swine/Shandong/fZC/2003(H9N2)).
The mark [33] stands for this setting: source organism: Lymphocytic choriomeningitis virus (strain Armstrong).
Setting [34] is: source organism: Influenza A virus (A/camel/Mongolia/1982(H1N1)).
Where [35] appears, read: source organism: Influenza A virus (A/Puerto Rico/8/34/Mount Sinai(H1N1)).
The mark [36] stands for this setting: source organism: Influenza A virus (A/chicken/Hubei/wk/1997(H5N1)).
[37] abbreviates: source organism: Influenza A virus(A/swine/Shandong/fNY/2003(H9N2)).
Where [38] appears, read: source organism: Mammarenavirus lassaense.
Where [39] appears, read: source organism: Giardia lamblia ATCC 50803.

By Kd is commonly meant the free concentration of one partner at which half of the binding sites on the other are occupied at equilibrium, for simple one-to-one binding. Take AEAAVKPLLA: the Kd is not below 55.5 µM in assay [1] (setting [27]); 0.0356 µM in assay [2] (setting [27]); 0.0106 µM in assay [3] (setting [27]); 0.105 µM in assay [4] (setting [27]); 0.164 µM in assay [5] (setting [27]); not below 20.1 µM in assay [6] (setting [27]).
For AEWVLAYML, the Kd was determined as 0.418 µM in assay [1] (setting [27]); 0.00504 µM in [2] (setting [27]); 0.0365 µM in [3] (setting [27]); 0.0139 µM in [4] (setting [27]); 0.00475 µM in [5] (setting [27]); 0.00402 µM in assay [6] (setting [27]).
As to AEYKLQQGTF, the Kd in assay [1] (setting [27]) is 7.04 µM; in assay [2] (setting [27]), 0.0896 µM; in [3] (setting [27]) it was 0.0623 µM; in assay [4] (setting [27]), 0.0288 µM; in [5] (setting [27]) it was 4.58 µM; in assay [6] (setting [27]), 0.02 µM.
Take ASEELMDKY: the Kd in assay [7] (setting [28]) is not below 20 µM; in assay [8] (setting [28]), 0.0272 µM; in assay [9] (setting [28]), not below 20 µM; in [10] (setting [28]) it was not below 20 µM; in assay [11] (setting [29]), not below 20 µM; in assay [12] (setting [29]) it was not below 20 µM. Moreover, the Kd in assay [13] (setting [29]), in assay [14] (setting [28]), in assay [15] (setting [28]), in [16] (setting [28]), in assay [17] (setting [28]) and in assay [18] (setting [28]) was not below 20 µM in each case. Further, the Kd in [19] (setting [28]), in assay [20] (setting [28]), in assay [21] (setting [28]) and in [22] (setting [28]) was not below 20 µM throughout.
As for EELSMMYESL, the Kd was found to be 1.34 µM in assay [1] (setting [30]); 1.85 µM in assay [2] (setting [30]); 1.9 µM in assay [3] (setting [30]); 1.48 µM in assay [4] (setting [30]); 0.899 µM in assay [5] (setting [30]); 0.106 µM in assay [6] (setting [30]).
Take IAGFIEGGW: the Kd in assay [7] (setting [31]), in [8] (setting [31]), in assay [9] (setting [31]), in assay [10] (setting [31]), in [11] (setting [32]) and in assay [12] (setting [32]) was not below 20 µM throughout. For the same sequence, the Kd in assay [13] (setting [32]) is not below 20 µM; in assay [14] (setting [31]) it was 0.0654 µM; in assay [15] (setting [31]), not below 20 µM; in assay [23] (setting [31]), not below 20 µM; in [16] (setting [31]) it was not below 20 µM; in [17] (setting [31]) it was not below 20 µM. For the same sequence, the Kd in [18] (setting [31]), in assay [19] (setting [31]), in assay [24] (setting [31]), in [20] (setting [31]), in [21] (setting [31]) and in assay [22] (setting [31]) was not below 20 µM throughout.
Regarding IEVALRTLL, the dissociation constant Kd in [1] (setting [33]) amounted to 0.0772 µM; in [2] (setting [33]), 3.73 µM; in assay [3] (setting [33]), 18.3 µM; in [4] (setting [33]), 14.6 µM; in [5] (setting [33]) it was 0.0644 µM; in assay [6] (setting [33]) it was 0.0549 µM.
On to KDTPGGYCL, for which the Kd in [1] (setting [30]) is not below 61 µM; in [2] (setting [30]), not below 78.1 µM; in assay [3] (setting [30]) it was 18.3 µM; in assay [4] (setting [30]), not below 77.9 µM; in assay [5] (setting [30]), 11.9 µM; in [6] (setting [30]), 3.48 µM.
Regarding KFFPSSSYR, the Kd in assay [25] (setting [34]), in assay [7] (setting [34]), in [8] (setting [34]), in [9] (setting [34]), in [10] (setting [34]) and in assay [12] (source organism: Influenza A virus H3N2) was not below 20 µM throughout. The Kd in [14] (setting [34]), in assay [15] (setting [34]), in assay [26], in assay [16] (setting [34]), in assay [17] (setting [34]) and in [18] (setting [34]) was not below 20 µM each time. The Kd in assay [24] (setting [34]) is not below 20 µM; in [20] (setting [34]), not below 20 µM; in [21] (setting [35]), 0.184 µM; in assay [22] (setting [34]), not below 20 µM.
For the sequence LESLWAPFGV, the Kd in assay [1] (setting [30]) is 0.607 µM; in [2] (setting [30]), not below 56.4 µM; in assay [3] (setting [30]) it was 16.1 µM; in assay [4] (setting [30]), not below 31.8 µM; in assay [5] (setting [30]), not below 24.6 µM; in assay [6] (setting [30]) it was 0.159 µM.
Take NPALRMKWM: the Kd in assay [25] (setting [36]) was not below 20 µM; in assay [7] (setting [36]) it was not below 20 µM; in [8] (setting [36]), not below 20 µM; in assay [9] (setting [35]) it was 0.091 µM; in assay [10] (setting [36]) it was not below 20 µM; in [11] (setting [37]), not below 20 µM. The Kd in assay [12] (setting [37]), in [13] (setting [37]), in assay [14] (setting [36]), in assay [15] (setting [36]), in [23] (setting [36]) and in assay [16] (setting [36]) was not below 20 µM in each case. Besides, the Kd was not below 20 µM in [17] (setting [36]); not below 20 µM in assay [18] (setting [36]); not below 20 µM in assay [19] (setting [36]); 1.41 µM in [24] (setting [35]); not below 20 µM in assay [20] (setting [36]); not below 20 µM in assay [21] (setting [36]). The Kd in assay [22] (setting [36]) was not below 20 µM.
On to PEFYEAMYT, for which the Kd in [1] (setting [27]) was not below 52.4 µM; in [2] (setting [27]), 4.91 µM; in assay [3] (setting [27]), 3.4 µM; in [4] (setting [27]), 17.4 µM; in [5] (setting [27]), 3.74 µM; in assay [6] (setting [27]), 5.05 µM.
For SDLDMLTQS, the Kd in assay [1] (setting [38]) was not below 77.5 µM; in assay [2] (setting [38]), not below 78.1 µM; in [3] (setting [38]), not below 77.7 µM; in assay [4] (setting [38]), not below 42.2 µM; in assay [5] (setting [38]), not below 24.7 µM; in [6] (setting [38]), 6.1 µM.
As to YIASIFMPR, the Kd in assay [25] (setting [39]), in assay [7] (setting [39]), in assay [8] (setting [39]), in assay [9] (setting [39]), in assay [10] (setting [39]) and in assay [12] (setting [39]) was not below 20 µM throughout. In addition, the Kd in [13] (setting [39]) was not below 20 µM; in [14] (setting [39]), not below 20 µM; in assay [23] (setting [39]) it was 0.0448 µM; in assay [17] (setting [39]) it was not below 20 µM; in assay [18] (setting [39]) it was not below 20 µM; in assay [19] (setting [39]), 0.011 µM. Further, the Kd in [20] (setting [39]) is not below 20 µM; in [21] (setting [39]) it was 0.335 µM; in [22] (setting [39]) it was not below 20 µM.
